Consider 20 molecules from patent US20230346885A1 (published 2023).

Common to all, as to test: binding, other
For assay [1], the target named is T1, KLK4 peptide on HLA (human).
T1 peptide: SIASQCPTA

In assay [2] the target is T2, NPSR1 peptide on HLA (human).
T2 peptide: AINPLIYCV

Assay [3] deals with T3, PAEP peptide on HLA (human).
T3 peptide: LLDTDYDNFL

Assay [4] has as its target T4, XAGE1 peptide on HLA (human).
T4 peptide: ISQTPGINL

For assay [5], the target named is T5, PAEP peptide on HLA (human).
T5 peptide: MMCQYLARV

The target in assay [6] is T6, ASCL2 peptide on HLA (human).
T6 peptide: ALSPAERELL

Assay [7] addresses T7, BRDT peptide on HLA (human).
T7 peptide: RLLDVNNQL

The target in assay [8] is T8, LGSN peptide on HLA (human).
T8 peptide: ALGETFIRYFV

In assay [9] the target is T9, TRPM1 peptide on HLA (human).
T9 peptide: RLLEKHISL

In assay [10] the target is T10, PAEP peptide on HLA (human).
T10 peptide: TLLDTDYDNFL

B1: TCR of SEQ ID NOs 403 and 404 (TCR, V domains shown)
Valpha: KQEVTQIPAALSVPEGENLVLNCSFTDSAIYNLQWFRQDPGKGLTSLLLIQSSQREQTSGRLNASLDKSSGRSTLYIAASQPGDSATYLCAVRPRGDSWGKLQFGAGTQVVVTP
Vbeta: NAGVTQTPKFQVLKTGQSMTLQCAQDMNHEYMSWYRQDPGMGLRLIHYSVGAGITDQGEVPNGYNVSRSTTEDFPLRLLSAAPSQTSVYFCASSPTGYGEAFFGQGTRLTVV
With B1, the binding result in assay [1] is on record as “recognises”.

B2: TCR of SEQ ID NOs 441 and 442 (TCR, V domains shown)
Valpha: QKEVEQNSGPLSVPEGAIASLNCTYSDRGSQSFFWYRQYSGKSPELIMSIYSNGDKEDGRFTAQLNKASQYVSLLIRDSQPSDSATYLCAVNDSGGYQKVTFGTGTKLQVIP
Vbeta: NAGVTQTPKFQVLKTGQSMTLQCAQDMNHEYMSWYRQDPGMGLRLIHYSVGAGITDQGEVPNGYNVSRSTTEDFPLRLLSAAPSQTSVYFCASSYSPGNGYTFGSGTRLTVV
Turning to B2, the binding result in assay [2] is “recognises”.

B3: TCR of SEQ ID NOs 471 and 472 (TCR, V domains shown)
Valpha: KQEVTQIPAALSVPEGENLVLNCSFTDSAIYNLQWFRQDPGKGLTSLLLIQSSQREQTSGRLNASLDKSSGRSTLYIAASQPGDSATYLCAVSPINDYKLSFGAGTTVTVRA
Vbeta: KAGVTQTPRYLIKTRGQQVTLSCSPISGHRSVSWYQQTPGQGLQFLFEYFSETQRNKGNFPGRFSGRQFSNSRSEMNVSTLELGDSALYLCASSLVGTGGSPLHFGNGTRLTVT
Take B3: in assay [3], the binding result is “recognises”.

B4: TCR of SEQ ID NOs 615 and 616 (TCR, V domains shown)
Valpha: QKEVEQNSGPLSVPEGAIASLSCTYSDRGSQSFFWYRQYSGKSPELIMSIYSNGDKEDGRFTAQLNKASQYVSLLIRDSQPSDSATYLCAVGAGGYNKLIFGAGTRLAVHP
Vbeta: NAGVTQTPKFRVLKTGQSMTLQCTQDMNHNYMYWYRQDPGMGLRLIHYSVGEGTTAKGEVPDGYNVSRSTTEDFPLRLLSAAPSQTSVYFCASRREGPLHFGNGTRLTVT
Regarding B4, the binding result in assay [4] is on record as “recognises”.

B5: TCR of SEQ ID NOs 475 and 476 (TCR, V domains shown)
Valpha: QKEVEQNSGPLSVPEGAIASLNCTYSDRGSQSFFWYRQYSGKSPELIMFIYSNGDKEDGRFTAQLNKASQYVSLLIRDSQPSDSATYLCAVDGSYIPTFGRGTSLIVHP
Vbeta: NAGVTQTPKFRVLKTGQSMTLLCAQDMNHEYMYWYRQDPGMGLRLIHYSVGEGTTAKGEVPDGYNVSRLKKQNFLLGLESAAPSQTSVYFCASSSGGADTGELFFGEGSRLTVL
With B5, the binding result in assay [5] was “recognises”.

B6: TCR of SEQ ID NOs 299 and 300 (TCR, V domains shown)
Valpha: QKEVEQNSGPLSVPEGAIASLNCTYSDRGSQSFFWYRQYSGKSPELIMSIYSNGDKEDGRFTAQLNKASQYVSLLIRDSQPSDSATYLCAVDTGRRALTFGSGTRLQVQP
Vbeta: NAGVTQTPKFQVLKTGQSMTLLCAQDMNHNSMYWYRQDPGMGLRLIYYSASEGTTDKGEVPNGYNVSRLNKREFSLRLESAAPSQTSVYFCASSVGGTYGYTFGSGTRLTVV
In the case of B6, the binding result in assay [6] is recorded as “recognises”.

B7: TCR of SEQ ID NOs 301 and 302 (TCR, V domains shown)
Valpha: QKEVEQNSGPLSVPEGAIASLNCTYSDRGSQSFFWYRQYSGKSPELIMSIYSNGDKEDGRFTAQLNKASQYVSLLIRDSQPSDSATYLCAVDTGRRALTFGSGTRLQVQP
Vbeta: NAGVTQTPKFQVLKTGQSMTLQCAQDMNHNSMYWYRQDPGMGLRLIYYSASEGTTDKGEVPNGYNVSRLNKREFSLRLESAAPSQTSVYFCASSTGGSYGYTFGSGTRLTVV
Regarding B7, the binding result in assay [6] is “recognises”.

B8: TCR of SEQ ID NOs 437 and 438 (TCR, V domains shown)
Valpha: QKEVEQNSGPLSVPEGAIASLNCTYSDRGSQSFFWYRQYSGKSPELIMSIYSNGDKEDGRFTAQLNKASQYVSLLIRDSQPSDSATYLCAVGGGADGLTFGKGTHLIIQP
Vbeta: NAGVTQTPKFRILKIGQSMTLQCTQDMNHNYMYWYRQDPGMGLKLIYYSVGAGITDKGEVPNGYNVSRSTTEDFPLRLELAAPSQTSVYFCASSYGNLGTEAFFGQGTRLTVV
Take B8: in assay [2], the binding result is on record as “recognises”.

B9: TCR of SEQ ID NOs 469 and 470 (TCR, V domains shown)
Valpha: QKEVEQNSGPLSVPEGAIASLNCTYSDRGSQSFFWYRQYSGKSPELIMSIYSNGDKEDGRFTAQLNKASQYVSLLIRDSQPSDSATYLCAVRRNTDKLIFGTGTRLQVFP
Vbeta: DTGVSQNPRHKITKRGQNVTFRCDPISEHNRLYWYRQTLGQGPEFLTYFQNEAQLEKSRLLSDRFSAERPKGSFSTLEIQRTEQGDSAMYLCASSPRDRSPYGYTFGSGTRLTVV
For B9, the binding result in assay [3] is given as “recognises”.

B10: TCR of SEQ ID NOs 613 and 614 (TCR, V domains shown)
Valpha: QKEVEQNSGPLSVPEGAIASLNCTYSDRGSQSFFWYRQYSGKSPELIMSIYSNGDKEDGRFTAQLNKASQYVSLLIRDSQPSDSATYLCAVNEGYQKVTFGIGTKLQVIP
Vbeta: NAGVTQTPKFQVLKTGQSMTLQCAQDMNHEYMYWYRQDPGMGLRLIHYSVGAGITDQGEVPNGYNVSRSTTEDFPLRLLSAAPSQTSVYFCASSRDYDYGQYFGPGTRLTVT
Take B10: the binding result in [4] is “recognises”.

B11: TCR of SEQ ID NOs 477 and 478 (TCR, V domains shown)
Valpha: QKEVEQNSGPLSVPEGAIASLNCTYSDRGSQSFFWYRQYSGKSPELIMSIYSNGDKEDGRFTAQLNKASQYVSLLIRDSQPSDSATYLCAVSGSARQLTFGSGTQLTVLP
Vbeta: DGGITQSPKYLFRKEGQNVTLSCEQNLNHDAMYWYRQDPGQGLRLIYYSQIVNDFQKGDIAEGYSVSREKKESFPLTVTSAQKNPTAFYLCASSPFADDSYGYTFGSGTRLTVV
Take B11: the binding result in assay [5] was “recognises”.

B12: TCR of SEQ ID NOs 319 and 320 (TCR, V domains shown)
Valpha: KQEVTQIPVALSVPEGENLVLNCSFTDSAIYNLQWFRQDPGKGLTSLLLIQSSQREQTSGRLNASLDKSSGRSTLYIAASQPGDSATYLCAVKGGANNLFFGTGTRLTVIP
Vbeta: NAGVTQTPKFRILKIGQSMTLQCTQDMNHNYMYWYRQDPGMGLKLIYYSVGAGITDKGEVPNGYNVSRSTTEDFPLRLLSAAPSQTSVYFCASRGDGDRSPLHFGNGTRLTVT
Consider B12, for which, in [7], the binding result was “recognises”.

B13: TCR of SEQ ID NOs 321 and 322 (TCR, V domains shown)
Valpha: KQEVTQIPAALSVPEGENLVLNCSFTDSAIYNLQWFRQDPGKGLTSLLLIQSSQREQTSGRLNASLDKSSGRSTLYIAASQPGDSATYLCAVRGGYQKVTFGTGTKLQVIP
Vbeta: NAGVTQTPKFQVLKTGQSMTLQCAQDMNHNSMYWYRQDPGMGLRLIHYSVGAGITDQGEVPNGYNVSRSTTEDFPLRLLSAAPSQTSVYFCASRGDGDRSPLHFGNGTRLTVT
As to B13, the binding result in assay [7] is reported as “recognises”.

B14: TCR of SEQ ID NOs 417 and 418 (TCR, V domains shown)
Valpha: KQEVTQIPAALSVPEGENLVLNCSFTDSAIYNLQWFRQDPGKGLTSLLLIQSSQREQTSGRLNASLDKSSGRSTLYIAASQPGDSATYLCAVRAQGGSEKLVFGKGTKLTVNP
Vbeta: NAGVTQTPKFRILKIGQSMTLQCTQDMNHNYMYWYRQDPGMGLKLIYYSVGAGITDKGEVPNGYNVSRSTTEDFPLRLELAAPSQTSVYFCASSYLGQDPEGAEAFFGQGTRLTVV
Turning to B14, the binding result in assay [8] is given as “recognises”.

B15: TCR of SEQ ID NOs 609 and 610 (TCR, V domains shown)
Valpha: KQEVTQIPAALSVPEGENLVLNCSFTDSAIYNLQWFRQDPGKGLTSLLLIQSSQREQTSGRLNASLDKSSGRSTLYIAASQPGDSATYLCAVPAQGGSEKLVFGKGTKLTVNP
Vbeta: NAGVTQTPKFQVLKTGQSMTLQCAQDMNHEYMSWYRQDPGMGLKLIYYSVGAGITDKGEVPNGYNVSRSTTEDFPLRLESAAPSQTSVYFCASTESPYYGYTFGSGTRLTVV
Turning to B15, the binding result in assay [9] is given as “recognises”.

B16: TCR of SEQ ID NOs 415 and 416 (TCR, V domains shown)
Valpha: KQEVTQIPAALSVPEGENLVLNCSFTDSAIYNLQWFRQDPGKGLTSLLLIQSSQREQTSGRLNASLDKSSGRSTLYIAASQPGDSATYLCAVRGYQKVTFGTGTKLQVIP
Vbeta: NAGVTQTPKFQVLKTGQSMTLQCAQDMNHEYMSWYRQDPGMGLRLIHYSVGAGITDQGEVPNGYNVSRSTTEDFPLRLLSAAPSQTSVYFCASSPGIGELFFGEGSRLTVL
B16: the binding result in assay [8] was “recognises”.

B17: TCR of SEQ ID NOs 401 and 402 (TCR, V domains shown)
Valpha: KQEVTQIPAALSVPEGENLVLNCSFTDSAIYNLQWFRQDPGKGLTSLLLIQSSQREQTSGRLNASLDKSSGRSTLYIAASQPGDSATYLCAVSPPAAGNKLTFGGGTRVLVKP
Vbeta: NAGVTQTPKFRILKIGQSMTLQCAQDMNHNYMYWYRQDPGMGLKLIYYSVGAGITDKGEVPNGYNVSRSTTEDFPLRLELAAPSQTSVYFCASSLTWTGGFGYTFGSGTRLTVV
For B17, the binding result in [1] is reported as “recognises”.

B18: TCR of SEQ ID NOs 483 and 484 (TCR, V domains shown)
Valpha: ELKVEQNPLFLSMQEGKNYTIYCNYSTTSDRLYWYRQDPGKSLESLFVLLSNGAVKQEGRLMASLDTKARLSTLHITAAVHDLSATYFCAVGAYSGAGSYQLTFGKGTKLSVIP
Vbeta: NAGVIQNPRHLVRRRGQEARLRCSPMKGHSHVYWYRQLPEEGLKFMVYLQKENIIDESGMPKERFSAEFPKEGPSILRIQQVVRGDSAAYFCASSKYPAGEANEKLFFGSGTQLSVL
As for B18, the binding result in [10] is reported as “recognises”.

B19: TCR of SEQ ID NOs 607 and 608 (TCR, V domains shown)
Valpha: KQEVTQIPAALSVPEGENLVLNCSFTDSAIYNLQWFRQDPGKGLTSLLLIQSSQREQTSGRLNASLDKSSGRSTLYIAASQPGDSATYLCAVRGMNTGFQKLVFGTGTRLLVSP
Vbeta: NAGVTQTPKFQVLKTGQSMTLQCAQDMNHEYMSWYRQDPGMGLRLIHYSVGAGITDQGEVPNGYNVSRSTTEDFPLRLLSAAPSQTSVYFCASSPGVTSTEAFFGQGTRLTVV
As for B19, the binding result in assay [9] was “recognises”.

B20: TCR of SEQ ID NOs 481 and 482 (TCR, V domains shown)
Valpha: KQEVTQIPAALSVPEGENLVLNCSFTDSAIYNLQWFRQDPGKGLTSLLLIQSSQREQTSGRLNASLDKSSGRSTLYIAASQPGDSATYLCAATDSWGKLQFGAGTQVVVTP
Vbeta: DTGVSQNPRHKITKRGQNVTFRCDPISEHNRLYWYRQTLGQGPEFLTYFRNEAQLEKSRLLSDRFSAERPKGSFSTLEIQRTEQGDSAMYLCASSLFSRGTNYGYTFGSGTRLTVV
In the case of B20, the binding result in assay [10] is “recognises”.
